# Laboratory results published in article PMC11027885, “Utilizing surface plasmon resonance as a novel method for monitoring in-vitro P-glycoprotein efflux” (Frontiers in biophysics, 2024).
# System: CCC(=O)C(CC(C)N(C)C)(c1ccccc1)c1ccccc1
# Test: purified protein, by the assay type
# Conditions: other: 50 nM Pgp in liposomes; curve fit
substance,measurement,value
"mouse Pgp (Abcb1a, MDR3) (Mus musculus)",Km,28 ± 10 µM
